Laboratory results taken from publication PMC4221194.

Assays:
Test in all cases: SEC; Superdex 75 10/300 GL column, after Ni-NTA purification; absorbance at 280 nm; proteins eluted at about 80 kDa
[1] = biological target: D22G-Angiogenin-GST (human Angiogenin D22G fused to GST, with a C-terminal hexa-histidine tag) (human) (UniProt P03950)
[2] = biological target: L35P-Angiogenin-GST (human Angiogenin L35P fused to GST, with a C-terminal hexa-histidine tag) (human) (UniProt P03950)
[3] = biological target: wild-type Angiogenin-GST (human Angiogenin fused to GST, with a C-terminal hexa-histidine tag) (human) (UniProt P03950)

## D22G-Angiogenin-GST (human Angiogenin D22G fused to GST, with a C-terminal hexa-histidine tag) (from UniProt P03950 25-147) (enzyme)
[1]
  stoichiometry N: 2

## L35P-Angiogenin-GST (human Angiogenin L35P fused to GST, with a C-terminal hexa-histidine tag) (from UniProt P03950 25-147) (enzyme)
[2]
  stoichiometry N: 2

## wild-type Angiogenin-GST (human Angiogenin fused to GST, with a C-terminal hexa-histidine tag) (from UniProt P03950 25-147) (enzyme)
[3]
  stoichiometry N: 2
